Data taken from publication PMC11254934.
No end group written: not given here. *: point of attachment. G0F = octasaccharide N-glycan with core α-1,6-fucose, CC(=O)N[C@@H]1[C@@H](O)[C@H](O[C@@H]2O[C@H](CO)[C@@H](O[C@@H]3O[C@H](CO[C@H]4O[C@H](CO)[C@@H](O)[C@H](O)[C@@H]4O[C@@H]4O[C@H](CO)[C@@H](O)[C@H](O)[C@H]4NC(C)=O)[C@@H](O)[C@H](O[C@H]4O[C@H](CO)[C@@H](O)[C@H](O)[C@@H]4O[C@@H]4O[C@H](CO)[C@@H](O)[C@H](O)[C@H]4NC(C)=O)[C@@H]3O)[C@H](O)[C@H]2NC(C)=O)[C@@H](CO[C@@H]2O[C@@H](C)[C@@H](O)[C@@H](O)[C@@H]2O)O[C@H]1*

Molecular target: anti-fuc-PSA mAb 2E9 (rabbit)
Sequence (heavy, as listed by the source, chain 1 of 2): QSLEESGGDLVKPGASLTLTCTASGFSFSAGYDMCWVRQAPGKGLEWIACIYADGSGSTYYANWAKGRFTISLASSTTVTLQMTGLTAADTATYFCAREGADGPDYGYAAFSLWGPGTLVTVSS
Sequence (light, as listed by the source, chain 2 of 2): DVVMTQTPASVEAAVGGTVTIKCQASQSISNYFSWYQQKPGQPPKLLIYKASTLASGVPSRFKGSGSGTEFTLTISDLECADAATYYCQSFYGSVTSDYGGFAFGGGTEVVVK
Assay: SPR; Biacore 8k, 37 °C, HBS-ET (10 mM HEPES pH 7.4, 150 mM NaCl, 3 mM EDTA, 0.005% Tween 20) with 1 mg/mL carboxymethyl dextran; rabbit IgG from culture supernatant captured by goat anti-rabbit Fcγ on CM5; peptides injected at 0, 11, 33, 100, 300, 900 nM; Langmuir fit

B1: PSA(67–79)-G0F (peptide)
peptide: IRN(G0F)KSVILLGRHS
BL (binding late): 27 RU | Kd: 600 pM | stoichiometry N: 2 | t1/2 (antibody–antigen complex half-life): 10 min
